Abundance fitness data for 50 variants are collected here from the Human Domainome abundance scans (Beltran et al. 2025).

± gives the uncertainty stated by the source.

First the molecules themselves.
B1: Homeobox protein SIX3, residues 212 to 262; numbered along this chain, O95343 (parent)
chain: CFKERTRSLLREWYLQDPYPNPSKKRELAQATGLTPTQVGNWFKNRRQRDR
B2: Tumor protein p73, residues 487 to 549; numbered along this chain, O15350 (parent)
chain: YHADPSLVSFLTGLGCPNCIEYFTSQGLQSIYHLQNLTIEDLGALKIPEQYRMTIWRGLQDLK

In one series the parent is B1. As to the kind of experiment: abundance fitness (aPCA) (normalised: wild type 0, dead -1); higher = more abundant; growth selection in yeast, the domain comes from the species named. Particulars: Homo sapiens.
Turning to CFKERCRSLLREWYLQDPYPNPSKKRELAQATGLTPTQVGNWFKNRRQRDR, the abundance fitness is -0.533 ± 0.2.
In the case of CFKERERSLLREWYLQDPYPNPSKKRELAQATGLTPTQVGNWFKNRRQRDR, the abundance fitness was -0.287 ± 0.061.
Still for that read-out and setting: as for CFKNRTRSLLREWYLQDPYPNPSKKRELAQATGLTPTQVGNWFKNRRQRDR, the figure is -0.357 ± 0.42.
Same read-out and setting: as for CFKSRTRSLLREWYLQDPYPNPSKKRELAQATGLTPTQVGNWFKNRRQRDR, the figure is -0.136 ± 0.065.
Still for that read-out and setting: the figure for CFKYRTRSLLREWYLQDPYPNPSKKRELAQATGLTPTQVGNWFKNRRQRDR is -0.441 ± 0.28; for CFKWRTRSLLREWYLQDPYPNPSKKRELAQATGLTPTQVGNWFKNRRQRDR it is -0.684 ± 0.16.
As for CFKARTRSLLREWYLQDPYPNPSKKRELAQATGLTPTQVGNWFKNRRQRDR, the abundance fitness was -0.931 ± 0.2.
On to CFKVRTRSLLREWYLQDPYPNPSKKRELAQATGLTPTQVGNWFKNRRQRDR, for which the abundance fitness is -0.651 ± 0.071.
The same measure, in the same setting: as for CFKDRTRSLLREWYLQDPYPNPSKKRELAQATGLTPTQVGNWFKNRRQRDR, the figure is -0.532 ± 0.47; as for CFKMRTRSLLREWYLQDPYPNPSKKRELAQATGLTPTQVGNWFKNRRQRDR, -0.178 ± 0.25; as for CFKCRTRSLLREWYLQDPYPNPSKKRELAQATGLTPTQVGNWFKNRRQRDR, -0.685 ± 0.21.
For the variant CFKRRTRSLLREWYLQDPYPNPSKKRELAQATGLTPTQVGNWFKNRRQRDR, the abundance fitness was -0.708 ± 0.06.
Still for that read-out and setting: as for CFKKRTRSLLREWYLQDPYPNPSKKRELAQATGLTPTQVGNWFKNRRQRDR, the figure is -0.152 ± 0.14.
On to CFKFRTRSLLREWYLQDPYPNPSKKRELAQATGLTPTQVGNWFKNRRQRDR, for which the abundance fitness is -0.226 ± 0.31.
Same read-out and setting: as for CFKLRTRSLLREWYLQDPYPNPSKKRELAQATGLTPTQVGNWFKNRRQRDR, the figure is -0.605 ± 0.17; as for CFKGRTRSLLREWYLQDPYPNPSKKRELAQATGLTPTQVGNWFKNRRQRDR, -0.532 ± 0.13.
As to CFKEPTRSLLREWYLQDPYPNPSKKRELAQATGLTPTQVGNWFKNRRQRDR, the abundance fitness was -0.329 ± 0.13.
As to CFKESTRSLLREWYLQDPYPNPSKKRELAQATGLTPTQVGNWFKNRRQRDR, the abundance fitness turned out to be 0.187 ± 0.089.
The same measure, in the same setting: the figure for CFKEQTRSLLREWYLQDPYPNPSKKRELAQATGLTPTQVGNWFKNRRQRDR is -0.317 ± 0.093; for CFKETTRSLLREWYLQDPYPNPSKKRELAQATGLTPTQVGNWFKNRRQRDR it is -0.148 ± 0.091; for CFKEVTRSLLREWYLQDPYPNPSKKRELAQATGLTPTQVGNWFKNRRQRDR it is 0.003 ± 0.059.
Still for that read-out and setting: as for CFKEATRSLLREWYLQDPYPNPSKKRELAQATGLTPTQVGNWFKNRRQRDR, the figure is -0.075 ± 0.09; as for CFKEETRSLLREWYLQDPYPNPSKKRELAQATGLTPTQVGNWFKNRRQRDR, -0.098 ± 0.095.
In the case of CFKEHTRSLLREWYLQDPYPNPSKKRELAQATGLTPTQVGNWFKNRRQRDR, the abundance fitness was -0.522 ± 0.21.
On the same count and under the same terms, as for CFKEMTRSLLREWYLQDPYPNPSKKRELAQATGLTPTQVGNWFKNRRQRDR, the figure is -0.16 ± 0.1.
The same measure, in the same setting: the figure for CFKEITRSLLREWYLQDPYPNPSKKRELAQATGLTPTQVGNWFKNRRQRDR is -0.418 ± 0.23.
Turning to CFKEKTRSLLREWYLQDPYPNPSKKRELAQATGLTPTQVGNWFKNRRQRDR, the abundance fitness is -0.394 ± 0.31.
Consider CFKEGTRSLLREWYLQDPYPNPSKKRELAQATGLTPTQVGNWFKNRRQRDR, for which the abundance fitness was -0.102 ± 0.083.
On the same count and under the same terms, the figure for CFKENTRSLLREWYLQDPYPNPSKKRELAQATGLTPTQVGNWFKNRRQRDR is -0.225 ± 0.15; for CFKEYTRSLLREWYLQDPYPNPSKKRELAQATGLTPTQVGNWFKNRRQRDR it is -0.455 ± 0.24; for CFKECTRSLLREWYLQDPYPNPSKKRELAQATGLTPTQVGNWFKNRRQRDR it is -0.359 ± 0.39.
Turning to CFKEWTRSLLREWYLQDPYPNPSKKRELAQATGLTPTQVGNWFKNRRQRDR, the abundance fitness is -0.369 ± 0.12.
The same measure, in the same setting: the figure for CFKEDTRSLLREWYLQDPYPNPSKKRELAQATGLTPTQVGNWFKNRRQRDR is -0.18 ± 0.16.
On the same count and under the same terms, the figure for CFKELTRSLLREWYLQDPYPNPSKKRELAQATGLTPTQVGNWFKNRRQRDR is -0.283 ± 0.1.

Variants of B2 are the subject of the next series. Described as above. Particulars: Homo sapiens.
On to YHADPSLVSFLTGLGCPNCIEYFTSQGLQSIYHLQNLTIEDLGALKIPEQYRMTIWRGLQDLC, for which the abundance fitness is -0.239 ± 0.088.
As to YHADPSLVSFLTGLGCPNCIEYFTSQGLQSIYHLQNLTIEDLGALKIPEQYRMTIWRGLQDLN, the abundance fitness is -0.245 ± 0.3.
Same read-out and setting: as for YHADPSLVSFLTGLGCPNCIEYFTSQGLQSIYHLQNLTIEDLGALKIPEQYRMTIWRGLQDLT, the figure is 0.172 ± 0.14; as for YHADPSLVSFLTGLGCPNCIEYFTSQGLQSIYHLQNLTIEDLGALKIPEQYRMTIWRGLQDLQ, 0.074 ± 0.28.
Still for that read-out and setting: as for YHADPSLVSFLTGLGCPNCIEYFTSQGLQSIYHLQNLTIEDLGALKIPEQYRMTIWRGLQDLW, the figure is -0.044 ± 0.25; as for YHADPSLVSFLTGLGCPNCIEYFTSQGLQSIYHLQNLTIEDLGALKIPEQYRMTIWRGLQDLG, -0.002 ± 0.075; as for YHADPSLVSFLTGLGCPNCIEYFTSQGLQSIYHLQNLTIEDLGALKIPEQYRMTIWRGLQDLL, -0.261 ± 0.087.
The same measure, in the same setting: the figure for YHADPSLVSFLTGLGCPNCIEYFTSQGLQSIYHLQNLTIEDLGALKIPEQYRMTIWRGLQDLA is -0.082 ± 0.16; for YHADPSLVSFLTGLGCPNCIEYFTSQGLQSIYHLQNLTIEDLGALKIPEQYRMTIWRGLQDLE it is 0.103 ± 0.063; for YHADPSLVSFLTGLGCPNCIEYFTSQGLQSIYHLQNLTIEDLGALKIPEQYRMTIWRGLQDLS it is 0 ± 0.058.
For the variant YHADPSLVSFLTGLGCPNCIEYFTSQGLQSIYHLQNLTIEDLGALKIPEQYRMTIWRGLQDLP, the abundance fitness is -0.394 ± 0.38.
On the same count and under the same terms, the figure for YHADPSLVSFLTGLGCPNCIEYFTSQGLQSIYHLQNLTIEDLGALKIPEQYRMTIWRGLQDLH is -0.34 ± 0.37; for YHADPSLVSFLTGLGCPNCIEYFTSQGLQSIYHLQNLTIEDLGALKIPEQYRMTIWRGLQDLR it is -0.159 ± 0.14; for YHADPSLVSFLTGLGCPNCIEYFTSQGLQSIYHLQNLTIEDLGALKIPEQYRMTIWRGLQDYK it is 0.008 ± 0.087.
The same measure, in the same setting: as for YHADPSLVSFLTGLGCPNCIEYFTSQGLQSIYHLQNLTIEDLGALKIPEQYRMTIWRGLQDWK, the figure is 0.071 ± 0.039; as for YHADPSLVSFLTGLGCPNCIEYFTSQGLQSIYHLQNLTIEDLGALKIPEQYRMTIWRGLQDVK, -0.007 ± 0.033.
